# Measured values from patent US20110236309A1.
# T1: TGF-β3 (Homo sapiens (Human)) (UniProt P10600)
# T1 sequence: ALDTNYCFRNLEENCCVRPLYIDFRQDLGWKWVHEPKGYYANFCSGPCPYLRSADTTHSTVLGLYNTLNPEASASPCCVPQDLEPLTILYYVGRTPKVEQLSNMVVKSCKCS
# B1: (TβRIIb)^2 homo-bivalent single-chain recombinant trap (designed binder, from a related filing)
# chain: APMAEGGGQNHHHHHHHHGGSFNPRIPPHVQKSVNNDMIVTDNNGAVKFPQLCKFCDVRFSTCDNQKSCMSNCSITSICEKPQEVCVAVWRKNDENITLETVCHDPKLPYHDFILEDAASPKCIMKEKKKPGETFFMCSCSSDECNDNIIFSEEYNTSNPDIPPHVQKSDVEMEAQKDEIICPSCNRTAHPLRHINNDMIVTDNNGAVKFPQLCKFCDVRFSTCDNQKSCMSNCSITSICEKPQEVCVAVWRKNDENITLETVCHDPKLPYHDFILEDAASPKCIMKEKKKPGETFFMCSCSSDECNDNIIFSEEYNTSNPD
# B2: (TβRII)^2 homo-bivalent single-chain recombinant trap (designed binder, from a related filing)
# chain: TIPPEQKLISEEDLLHVQKSVNNDMIVTDNNGAVKFPQLCKFCDVRFSTCDNQKSCMSNCSITSICEKPQEVCVAVWRKNDENITLETVCHDPKLPYHDFILEDAASPKCIMKEKKKPGETFFMCSCSSDECNDNIIFSEEYNTSNPDGGRHVQKSVNNDMIVTDNNGAVKFPQLCKFCDVRFSTCDNQKSCMSNCSITSICEKPQEVCVAVWRKNDENITLETVCHDPKLPYHDFILEDAASPKCIMKEKKKPGETFFMCSCSSDECNDNIIFSEEYNTSNPDHHHHHH
# Legend:
# [1] = target: TGF-β1 (Homo sapiens (Human)) (UniProt P01137)
# TGF-β1 (Homo sapiens (Human)), sequence (P01137 279-390 limits assumed): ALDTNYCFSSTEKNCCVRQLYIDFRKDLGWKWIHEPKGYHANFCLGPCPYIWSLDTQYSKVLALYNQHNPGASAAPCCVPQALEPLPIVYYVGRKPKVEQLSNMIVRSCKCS
# [2] = target: T1, TGF-β3 (Homo sapiens (Human))
# [3] = target: TGF-β1 (Homo sapiens (Human)) (UniProt P01137); remark: listed apart in the source
# [4] = target: T1, TGF-β3 (Homo sapiens (Human)); remark: listed apart in the source
Binder,"fold potency against TβRII-ED (neutralization, Mv1Lu luciferase reporter cells) [1] [fold]","fold potency against TβRII-ED (neutralization, Mv1Lu luciferase reporter cells) [2] [fold]","IC50 for TGF-β1 (neutralization, Mv1Lu luciferase reporter cells) [3] [nM]","IC50 for TGF-β3 (neutralization, Mv1Lu luciferase reporter cells) [4] [nM]"
B1,1000,1000,0.098,0.045
B2,100,100,1.36,0.336
